The values below come from the NTF2 design screens of Basanta et al. (2020).

The nature of this data set: protease stability score; higher = more stable; yeast display proteolysis, trypsin and chymotrypsin.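 Note: relative to predicted unfolded state with 0 unfolded-like and 1 meaning tenfold more protease.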
Sequence “DEDKESTDKMLELMLHLIKTGDFEIFEHLFDPNVRVNVGDKERVGWKEALKFRRQWRLHHMEVRDVHKVGDKMHVDSRIDGSVNGVREEDRTEIILVKYDGRWFITSIEFH” gave a protease stability score of 0.99.
Consider “DEDKEWAHRILEHFLDNLRTGNEERLEELADPNTRVVIDGQEEHGMHVFNTLHKELRIDRIHLTSWDIQGDKLHLDVRVDGTFNGQREVTRVHIYFRVVNGRVKDIQIHVI”, for which the protease stability score came out at 1.8.
The sequence “DEDKEYLREVLEVLKHMWDTGDERELSKLADPHTRVEINGVKFIGMEEFVRIMQELTKRADHMENRVERNIYQGDYVLVRTRLILKIGEKDFEREVDIFVRKFNGRWLIEELKFH” yielded a protease stability score of 1.37.
The figure for “DEDKHLARHLVDLIWESLKTGNEKLSKSLADPNVRIIVGDKEVVGRERVEKWLEKVMHEIRVKDLDERHVDVQGDKVNVYVDIHGNFDGKDDTTHFYFDIKKVNGVWLIERYEVH” is 0.958; for “DEDKHLIETFLERLERILKTGDEEDERRLADPHAKLVQGDKILHGREELIRWLRELGAKHVRLHISHLDVQGDKVETDLRLIIIQGDKEYEKDMKVHVLKVDGRWLLKSIIVE” it is 2.08.
As for “DEDKHLSDYAMELELHAIKTGDEDLWRELIDPNARLIVGDKTFHGWEHLVTFMVSLGVKHVKLKDLKIQGDKMHSKLEIEFDGRTRTYHVVSLKVDGRWVIESVEVR”, the protease stability score amounted to 1.06.
With “DEDKHLSQLAIELLHRFLWTGDEHDLEHLMDPNAKLEQGDKTLHGRELVLEFFDHLVEEAGITKVDHKLRRIETYGNKVNIHGDLHVNGRTIRIEIIAVKINGKWVVRSVRIK”, the protease stability score amounted to 1.21.
“DEDKHQLDEATKVWLELFLTGNEEELLKLADPDVRIEVDGKHFHGREVMLKLMQEWKHRLGINVDELKRTEIEVIDGKAHVHLDGELYIDGKTFRLDIEVVYEKIDGRWRLKKVRFDIR” displayed a protease stability score of 2.15.
Consider “DEDKHVVEEFEKLMSHSMATGDEESLLRLADPNTRIVIGDKELHGMDLYLRWHVQHWRELGVDRVKVEVRVRDVRVVDGKVHVIGELIFRFDGRTQSHDVELEIVKINGKWVLKQINLK”, for which the protease stability score came to 2.25.
Sequence “DEDKKELEEMFRILKEMWETGDWREESRMVDPHARVDINGVELHGREFIMEHIHRVKNMRFEIKRFDVVNGVLEIVGELHQGDKKHRVTIHALKFDGKWLQETVIIG” gave a protease stability score of 1.6.
In turn, “DEDKKFIDEYLKLLEDSIETGDWRNHNELLDPNALVLVNGVELHGRELAVTHTEKFLKHMGVKHYRLHEVDIQGEKVHIHSKAHVDGRTFDLEFISHKIDGRWLMSEVRIREN” returned a protease stability score of 1.24.
Sequence “DEDKKHALEMAEMLFELIWTGDEHMLKELMDPNTRLFFNGRETHGWEFLSRELIHLRHRSDFRIRDVRIIGDYLHVDGEFHTILNINGVDIELHLHMEIVLFKIDGRWVVHEIRFL” registered a protease stability score of 1.72.
The sequence “DEDKKITDRAFEIFIHNLYTGNEEDLHELADPNVRHIYGDWNVHGMELMTHVLWEIRMKRLNEHDLEIHIINGRAIIDLDGELDGEVNGRRHHRRIIIHVFALKIDGRWHLESMEVKTK” gave a protease stability score of 1.35.
“DEDKKIWKHWLEIFVRWFLTGDFDKLRENADPNARSDINGKELHGMETFVEAMRELGFKHVEIHDVHIQGNKVHLDTRVLFDGQHHTTHLHVHIVNGRLKEISIEIR” had a protease stability score of 1.26.
Regarding “DEDKKLAHESFRIWLHWMRTGDEKMMEELMDPNTRTYFEGHSDHGRSAARQYANRIDHIHHIHVHHIEIQGDKVEVDGRLDGVVNGKRIDVRIVIESVKVNGKWIVRSIEEH”, the protease stability score amounted to 1.41.
“DEDKKLHHEALEVWERVLKTGNFRIESEYLDPHARNEFEGRHFHGRELFHELNEELGVENVRFHHFHVHDLETFNGRILMRFHMEGEINGQQFNVEVKVDTEKYDGVWFTRSFVER” yielded a protease stability score of 0.38.
“DEDKKLVEWVLRMLFEALRTGDEHALNNLFDPNVRIEQGDKRFHGREELIRLFHILGIDHIIIEDKDIKVFDGQLEIDGREVLIFDGRRFEIDMKIYIHKINGRWHVKSVHKD” registered a protease stability score of 1.78.
The figure for “DEDKKRSEEISKTMIEAMETGDEDRLHELLDPHVRMEIRIGDKHIIDHGREMMLHWSRRYPNLQFRLSHIDVQGDKIHAHWLVHIGDKTRDVELELQVVDGQIHSIHLRIR” is 1.52.
Sequence “DEDKKVAELVMRLWEHTQRTGDPDMMSKLADPNVRVDVNGREIHGRERLFEHLEHMRINHFRLRDREIHVQGDYVKIRIEGELDGDINGREDRHRIELIIVVEKINGRWFMTEVIVIVK” yielded a protease stability score of 1.37.
“DEDKKVFETALRILIHYERTGDWELLHRLADPNTRMIQGDKLHIGREKAKEFINKWTEEMRPTDVRIDHVEIINGRIHIEGTTHGDVNGQRHDLEVHILSIKVDGRWRLKEFELK” returned a protease stability score of 1.2.
Take “DEDKKWVDEMIRLLLEYWRTGDEERIRQLADPNVRTHINGKEIHGMEIHLQYLREFMETFGVDHVELRIHHKDIQGDKIHLHVEIIYTVGDKEHRQEVHFRARKINGKWMIEHVEIK”: the protease stability score came to 1.25.
In the case of “DEDKQHAEKVWRLFSKFVNTGDEESLNRLFDPDVKLRVGDKEFHGREEFVKFMSELYRRIDHVHWHFSHIEVVGEYIIIHGHTIFEVGDKKDSRDTRLIMFKVNGRWHIHHIRIE”, the protease stability score came out at 2.33.
The figure for “DEDKQWIEEFIELHLRELETGDEQRVDENLDPNVKLRINGKEVHGRERISHLLKELLRKVKNLKVELHDIRVQGDFLEIEGTLRIGDKELDLYVIAHKVNGKWIVKERRIH” is 1.23.
As to “DEDKRHADRWVDELRRVMLTGDFDTYVEMLDPHVRIEVGDKVIHGREDLIKFMRERLDRLGYERVEIRIEVSDREKQGDKIELHGTLHLFIGDKEHTHKIRIWIRKVNGQWIAESERVQ”, the protease stability score stood at 1.71.
In turn, “DEDKTNLDMALRLLKEVTETGDEETLLKMMDPNVRIIINGRDVHGRENAERFATEWSRKVKNATLEVKDFHSQGEKVHLLGHDIFNGREIEFRIIWVKYNGRWFIHEIIFI” registered a protease stability score of 1.3.
Take “DEDLEESHYAIEYLIRLFETGDWDTVDRFFDPRTRLRVNGKNHHGREEVTEFVEDILKRYDHKQFTFTHVEFQGEKIILHGKLHLDINGVHFEHDFILIIKKIDGRWYVDEIHIS”: the protease stability score is 1.39.
As for “DEDLEETRKLIELLTRAFFTGDEDEMKNLADPSVRIIINGREVHGMDEWVRLLEEIRLEDVHSNLRDIRYFNGVVEVDGEFRLDGNINGRRFHHVFDLRLYVIKVNGRWRVKSWRNI”, the protease stability score was 1.83.
In turn, “DEDLERARHAIEELIENWRTGNFREIERLMDPNVRIIIGDKTLHGRESMHRFVEEARLEHFELRHVSIVNGRVHVHGTEDWRIGDKRETREVRIVIHKVDGRWNFEFKIIH” yielded a protease stability score of 0.983.
“DEDLKLMLTLTHLWLHAVATGDEDLQTKLADPDVRFIFNGRIIHGMDEWRRFLKELRIKIEDTDHKDSDLYGEKLHIDGHIVIRIHVGEKNERIDTRVHIHVLVINGKLKSVKIETR” had a protease stability score of 2.13.
Consider “DEDLQFLKNFKEEWIKNLRTGDEDAVQKLADPNVRIDIDGKELHGREVMLEMLHQETNELRLKDVKDKHMTVQGDKIHWDGILIITINGKEIRRRVHIFVQKVDGRWVIESEIHR”, for which the protease stability score was found to be 0.942.
In turn, “DEDLRMAFEMVRISDHEIDTGDEDSWTKLFDPHVRIRFPGRMLHGREYLHYVLKHARIHYDDSELKDVKFVGNKLLVDVHVRGTFFIDGQNIHTEVKRIHMIEKYNGKWKTTEMEIK” had a protease stability score of 0.469.
Under “DEDLSRNFHQFIEALKQNDTDRMKELIDPNARMRYGDKQLHGRENILNYWKKLNDQARVDLDLKSVRNDENHIRYNYKMRVHVNGRPVEDTATAEIRATNGRIVDIYIDFDPEKLRQIES” stands 2.16.
Turning to “DEDMDISKHWAELWMKLEKTGDEEELRKLMDPHARIDFNGVDIHGMEFWLELLKREKDKFKNVKITLEEFRIYGDYVHFHVIIHQGDYHLRIEITIIVVNGRHKELIIRIK”, the protease stability score was -0.059.
As for “DEDMELVLKWVHEFAEMFETGNEHELLRMLDPHVRLEYGEKEIHGREDITRFWEEKIRKLGIKHIRVHIRDARIQGEKLHLDTELKLDYNGKTDHERYIIIIIKINGKWSIKSFQVE”, the protease stability score turned out to be 1.55.
Turning to “DEDMKIASHVFHLIMHILHTGDEDSLKELADPDYRWLFNGVSNVGREESVRRLEEIRLEMKDTKTRSAKIYDGRIELHSHVRGNLNVNGVEIEHSVRSRLFVSKVDGKWLVEHIEIG”, the protease stability score was -0.045.
For the sequence “DEDMREAVKIAHRWLQHMTTGDEESIQSLADPHTKILFNGRELHGRHVITHLIREIRIKYTHLEHRDWRVVDGQLHLDFREDLRIEFDGQVRRIEIESHFMIIKINGRWFVHEVHLR”, the protease stability score was 0.636.
In turn, “DEDNEYVEYMHELIARALITGDFELWLKLMDPNTRMQIDGKEFHGREEFRKRLEHLRIDRVRYNVRHFHIIGDKLHVKSEFEIDGQIDGVDRHFSVEIRVLIWKINGRWILRDETTH” displayed a protease stability score of 1.69.
Consider “DEDNREIKHAIHLLLTAFLTGNEDWLKELADPNVRILFNGRLFHGREHFLKFLLKFLRDYGIDHNHIQHSHLEIQGNFVHTHLHLEIDVNGRRQEFELRVISEKINGRWHLRELEVHIR”, for which the protease stability score was 2.43.
The figure for “DEDQEEANHLIDLFIASLNTGDWEIIDHMADPHVKFRSVVNGKREKHIGREEMIRWFEEIEERFGYENFHVRYQRFEVQGEKMNTDITIEWNGRRFRSIILLHVFNGKLKSMEIIDI” is 1.25; for “DEDQEEMYKALNHLLTLLKTGDEHVLKRLIDPHVRVEIDGKDRHGMSFLLEIIKEELIRIDHIKDFRIHHVEMVGDKAENHVKLIGEWNGKEFRLRMHVYSWKFDGKWIMKSIKIE” it is 1.75.
The figure for “DEDQEIAEHVAELILELLLTGDEEKFLTLLDPNVRIIVGDKELHGREDWMRLFRHMRVRHVELRKIEVQGEKVHVDSRLDVEFNGRRRNINANWIVLKVNGRWTIRSVELE” is 2.17; for “DEDQEIVERFTSLINHLILTGDEEEMKKLLDPNARWIYGDKHIHGRDEFIELLRQIKNVKTRFYIRHIDVINGKLVMHVEIELEFNGKRDHLRQIIISEKVDGRWRAKEFETR” it is 0.66.
In turn, “DEDQKAATRFTELLVRLLFTGDEEMWLQLADPRMILDFENHSEHGMKLVVKLLHETIERRGMRIDDMHHTHIEFQGEWVRVHVRVHERIGDKRISVEVEYKSLKVNGRWILHEIHIH” yielded a protease stability score of 0.372.
The figure for “DEDQKEAEDMAELITKLINTGDEEHWLDRADPHMKVDIDGVESVGREEIERLLHELIRKWGVSKIESRNKHVTIINGRVHFRINIHVNGQEYLLILINDKVDGRWRVQETRVHIT” is 1.63; for “DEDQKETEEAIKELEKLSKTGNEHDFLRYFDPNMRVEIGDKEIWGRERALEIFHELGVKHIEVKRVDVQGDKIRMDTLLRVNGQELHTQVVALKINGQWILESYRVE” it is 1.09.
The sequence “DEDQKFAMEVLELLVRAKVTGNEELLEKLLDPHTRVDINGREIHGWEEMLRILHEWRIRDLEFRVRDIHIIDGRLKIDGEERVEGEIDGRNMEIKYRTEVYYEKINGRWIVREMSVR” showed a protease stability score of 1.75.
As for “DEDREAAEFVVEHLLRALSTGNEEEFLSLLDPTVKWEIDGREYHGRELVSKILHEIRIKTTEFRSTRHEYQGDYLKLDGILHTTVEIDGKRKHLDVNLHMLILKYDGRWLLKSMSVR”, the protease stability score came out at 1.53.
